Article PMC7570090, “Label-Free Monitoring of Histone Acetylation Using Aptamer-Functionalized Field-Effect Transistor and Quartz Crystal Microbalance Sensors”

Columns and labels:
histone H3.1 = histone H3.1 (human, UniProt P68431 1-136); test: FET and QCM; 140 mM KCl; 33-1950 nM H3; FET: 1 mM phosphate, 140 mM KCl, pH 7.4, 25 C; aptamer/sulfobetaine SAM on gold annealed at 100 C and slowly cooled; QCM 30 MHz, 25 C (buffer not separately sta)
histone H4 = histone H4 (human, UniProt P62805 1-103); test: FET and QCM; 140 mM KCl; 44-2650 nM H4; FET: 1 mM phosphate, 140 mM KCl, pH 7.4, 25 C; aptamer/sulfobetaine SAM on gold annealed at 100 C and slowly cooled; QCM 30 MHz, 25 C (buffer not separately stated); settings: protein: commercial; G-quadruplex with K+

B1: anti-histone H3 aptamer (structured_DNA)
DNA: TTTGAGTGTGGTTCCCGGGAGGGCGCCTACGGGTCCCGTATTCGGATTTGTGC
modifications: 5' 6-mercaptohexyl linker
- binding result (histone H3.1): binds

B2: anti-histone H4 aptamer (structured_DNA)
DNA: TTTTGGTGGGGTTCCCGGGAGGGCGGCTACGGGTTCCGTAATCAGATTTGTGT
modifications: 5' 6-mercaptohexyl linker
- binding result (histone H4): binds
